Data as given in article PMC5531557, “Crystal structure and kinetic analysis of the class B3 di-zinc metallo-β-lactamase LRA-12 from an Alaskan soil metagenome” (PLoS ONE, 2017).

Assays:
[1] = system: CO/N=C(\C(=O)N[C@@H]1C(=O)N2C(C(=O)O)=C(COC(N)=O)CS[C@H]12)c1ccco1; assay: purified protein; format: biochemical, uncultured bacterium BLR12; details: 10 mM HEPES, 20 mM NaCl, pH 7.5, room temperature
[2] = system: CC(=O)OCC1=C(C(=O)O)N2C(=O)[C@@H](NC(=O)Cc3cccs3)[C@H]2SC1; assay: purified protein; format: biochemical, uncultured bacterium BLR12; details: 10 mM HEPES, 20 mM NaCl, pH 7.5, room temperature
[3] = system: CO[C@@]1(NC(=O)Cc2cccs2)C(=O)N2C(C(=O)O)=C(COC(N)=O)CS[C@@H]21; assay: purified protein; format: biochemical, uncultured bacterium BLR12; details: 10 mM HEPES, 20 mM NaCl, pH 7.5, room temperature
[4] = system: CO/N=C(\C(=O)N[C@@H]1C(=O)N2C(C(=O)[O-])=C(C[N+]3(C)CCCC3)CS[C@H]12)c1csc(N)n1; assay: purified protein; format: biochemical, uncultured bacterium BLR12; details: 10 mM HEPES, 20 mM NaCl, pH 7.5, room temperature
[5] = system: C[C@@H](O)[C@H]1C(=O)N2C(C(=O)O)=C(S[C@@H]3CN[C@H](C(=O)N(C)C)C3)[C@H](C)[C@H]12; assay: purified protein; format: biochemical, uncultured bacterium BLR12; details: 10 mM HEPES, 20 mM NaCl, pH 7.5, room temperature
[6] = system: C[C@@H](O)[C@H]1C(=O)N2C(C(=O)O)=C(SCCN=CN)C[C@H]12; assay: purified protein; format: biochemical, uncultured bacterium BLR12; details: 10 mM HEPES, 20 mM NaCl, pH 7.5, room temperature
[7] = system: CCN1CCN(C(=O)N[C@@H](C(=O)N[C@@H]2C(=O)N3[C@@H]2SC(C)(C)[C@@H]3C(=O)O)c2ccccc2)C(=O)C1=O; assay: purified protein; format: biochemical, uncultured bacterium BLR12; details: 10 mM HEPES, 20 mM NaCl, pH 7.5, room temperature
[8] = system: CC1(C)S[C@@H]2[C@H](NC(=O)Cc3ccccc3)C(=O)N2[C@H]1C(=O)O; assay: purified protein; format: biochemical, uncultured bacterium BLR12; details: 10 mM HEPES, 20 mM NaCl, pH 7.5, room temperature
[9] = system: C[C@@H](O)[C@H]1C(=O)N2C(C(=O)O)=C(S[C@@H]3CN[C@H](C(=O)Nc4cccc(C(=O)O)c4)C3)[C@H](C)[C@H]12; assay: purified protein; format: biochemical, uncultured bacterium BLR12; details: 10 mM HEPES, 20 mM NaCl, pH 7.5, room temperature
[10] = system: CO/N=C(\C(=O)N[C@@H]1C(=O)N2C(C(=O)O)=C(COC(C)=O)CS[C@H]12)c1csc(N)n1; assay: purified protein; format: biochemical, uncultured bacterium BLR12; details: 10 mM HEPES, 20 mM NaCl, pH 7.5, room temperature
[11] = system: CC(C)(O/N=C(\C(=O)N[C@@H]1C(=O)N2C(C(=O)[O-])=C(C[n+]3ccccc3)CS[C@H]12)c1csc(N)n1)C(=O)O; assay: purified protein; format: biochemical, uncultured bacterium BLR12; details: 10 mM HEPES, 20 mM NaCl, pH 7.5, room temperature
[12] = target: T1, LRA-12 (uncultured bacterium BLR12, UniProt B5L5V5); assay: competition with ceftazidime hydrolysis, UV absorbance; format: biochemical
T1 construct: gene blaLRA-12; pET28a(+) in E. coli BL21(DE3), N-terminal His tag cut by thrombin; mature enzyme of 269 residues (Gln26-Asn306 in BBL numbering); di-zinc

[13] = target: T1, LRA-12; assay: residual ertapenem hydrolysis, UV absorbance; format: biochemical

T1 sequence (B5L5V5 entry or part of it): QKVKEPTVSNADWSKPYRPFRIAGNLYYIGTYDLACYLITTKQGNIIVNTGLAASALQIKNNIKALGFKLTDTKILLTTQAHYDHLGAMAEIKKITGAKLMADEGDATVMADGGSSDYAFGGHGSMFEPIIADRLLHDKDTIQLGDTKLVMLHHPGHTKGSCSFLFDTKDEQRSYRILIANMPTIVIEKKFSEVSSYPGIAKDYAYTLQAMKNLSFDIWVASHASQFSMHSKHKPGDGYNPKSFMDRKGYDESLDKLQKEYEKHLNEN

LRA-12 (uncultured bacterium BLR12)
Km [1]: 20 ± 3.4 µM | kcat [1]: 16 ± 0.9 s⁻¹ | kcat/Km [1]: 800000 ± 190000 M⁻¹ s⁻¹ | Km [2]: 11 ± 2 µM | kcat [2]: 18 ± 0.8 s⁻¹ | kcat/Km [2]: 1.64e+06 ± 370000 M⁻¹ s⁻¹ | Km [3]: 4 ± 0.6 µM | kcat [3]: 7 ± 0.4 s⁻¹ | kcat/Km [3]: 1.75e+06 ± 320000 M⁻¹ s⁻¹ | Km [4]: 93 ± 13 µM | kcat [4]: 15 ± 1.4 s⁻¹ | kcat/Km [4]: 160000 ± 40000 M⁻¹ s⁻¹ | Km [5]: 113 ± 20 µM | kcat [5]: 95 ± 11 s⁻¹ | kcat/Km [5]: 840000 ± 230000 M⁻¹ s⁻¹ | Km [6]: 39 ± 7 µM | kcat [6]: 66 ± 5 s⁻¹ | kcat/Km [6]: 1.69e+06 ± 420000 M⁻¹ s⁻¹ | Km [7]: 83 ± 9 µM | kcat [7]: 74 ± 3 s⁻¹ | kcat/Km [7]: 890000 ± 130000 M⁻¹ s⁻¹ | Km [8]: 47 ± 4 µM | kcat [8]: 70 ± 2 s⁻¹ | kcat/Km [8]: 1.49e+06 ± 150000 M⁻¹ s⁻¹ | Km [9]: 43 ± 6 µM | kcat [9]: 57 ± 4 s⁻¹ | kcat/Km [9]: 1.33e+06 ± 270000 M⁻¹ s⁻¹ | Km [10]: 36 ± 4 µM | kcat [10]: 7 ± 0.3 s⁻¹ | kcat/Km [10]: 190000 ± 30000 M⁻¹ s⁻¹ | Km [11]: 59 ± 8 µM | kcat [11]: 12 ± 0.8 s⁻¹ | kcat/Km [11]: 200000 ± 40000 M⁻¹ s⁻¹

C[C@H]1[C@H](NC(=O)/C(=N\OC(C)(C)C(=O)O)c2csc(N)n2)C(=O)N1S(=O)(=O)O [aztreonam]
Ki [12]: 146 µM

O=C(O)CN(CCN(CC(=O)O)CC(=O)O)CC(=O)O [EDTA]
IC50 [13]: 113 µM

O=C(O)c1cccc(C(=O)O)n1 [DPA, pyridine-2,6-dicarboxylic acid]
IC50 [13]: 460 µM
